{"source": "IntAct's records for PubMed 20952388", "parents": {"B1": {"name": "Ethylene receptor 1 (Arabidopsis thaliana (Mouse-ear cress)), P49333 (parent)", "chain": "MEVCNCIEPQWPADELLMKYQYISDFFIAIAYFSIPLELIYFVKKSAVFPYRWVLVQFGAFIVLCGATHLINLWTFTTHSRTVALVMTTAKVLTAVVSCATALMLVHIIPDLLSVKTRELFLKNKAAELDREMGLIRTQEETGRHVRMLTHEIRSTLDRHTILKTTLVELGRTLALEECALWMPTRTGLELQLSYTLRHQHPVEYTVPIQLPVINQVFGTSRAVKISPNSPVARLRPVSGKYMLGEVVAVRVPLLHLSNFQINDWPELSTKRYALMVLMLPSDSARQWHVHELELVEVVADQVAVALSHAAILEESMRARDLLMEQNVALDLARREAETAIRARNDFLAVMNHEMRTPMHAIIALSSLLQETELTPEQRLMVETILKSSNLLATLMNDVLDLSRLEDGSLQLELGTFNLHTLFREVLNLIKPIAVVKKLPITLNLAPDLPEFVVGDEKRLMQIILNIVGNAVKFSKQGSISVTALVTKSDTRAADFFVVPTGSHFYLRVKVKDSGAGINPQDIPKIFTKFAQTQSLATRSSGGSGLGLAISKRFVNLMEGNIWIESDGLGKGCTAIFDVKLGISERSNESKQSGIPKVPAIPRHSNFTGLKVLVMDENGVSRMVTKGLLVHLGCEVTTVSSNEECLRVVSHEHKVVFMDVCMPGVENYQIALRIHEKFTKQRHQRPLLVALSGNTDKSTKEKCMSFGLDGVLLKPVSLDNIRDVLSDLLEPRVLYEGM", "partner": "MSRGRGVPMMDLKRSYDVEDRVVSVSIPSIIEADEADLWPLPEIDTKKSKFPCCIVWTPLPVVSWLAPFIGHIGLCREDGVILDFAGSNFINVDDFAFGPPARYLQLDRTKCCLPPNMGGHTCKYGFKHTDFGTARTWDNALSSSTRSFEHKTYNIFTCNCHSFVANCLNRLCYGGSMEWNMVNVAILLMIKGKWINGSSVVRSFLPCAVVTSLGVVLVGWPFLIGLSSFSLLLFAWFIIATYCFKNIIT"}}}
{"variants_of": "B1", "settings": "with rte1_arath RTE1, F4ITL6"}
{"variant": "C65W", "effect of a mutation on the interaction": "decreasing interaction"}
{"variant": "A102T", "effect of a mutation on the interaction": "decreasing interaction"}
